In patent US6380373B1, “Steroid receptor coactivator compositions and methods of use” (Baylor College of Medicine, priority 1995, dated 2002):

Columns and labels:
[1] = biological target: human progesterone receptor B isoform (hPRB) (human) (UniProt P06401); experiment: cell-based or functional assay
[2] = biological target: T1, ER (Homo sapiens, UniProt P03372); experiment: CAT reporter assay ER/ERE2-TATA-CAT in HeLa cells; format: cell-based; conditions: 3 μg SRC-1, estradiol 2×10^−8 M
T1 construct: expressed in transfected cells; host or cells: HeLa
T1 sequence (P03372 1-595): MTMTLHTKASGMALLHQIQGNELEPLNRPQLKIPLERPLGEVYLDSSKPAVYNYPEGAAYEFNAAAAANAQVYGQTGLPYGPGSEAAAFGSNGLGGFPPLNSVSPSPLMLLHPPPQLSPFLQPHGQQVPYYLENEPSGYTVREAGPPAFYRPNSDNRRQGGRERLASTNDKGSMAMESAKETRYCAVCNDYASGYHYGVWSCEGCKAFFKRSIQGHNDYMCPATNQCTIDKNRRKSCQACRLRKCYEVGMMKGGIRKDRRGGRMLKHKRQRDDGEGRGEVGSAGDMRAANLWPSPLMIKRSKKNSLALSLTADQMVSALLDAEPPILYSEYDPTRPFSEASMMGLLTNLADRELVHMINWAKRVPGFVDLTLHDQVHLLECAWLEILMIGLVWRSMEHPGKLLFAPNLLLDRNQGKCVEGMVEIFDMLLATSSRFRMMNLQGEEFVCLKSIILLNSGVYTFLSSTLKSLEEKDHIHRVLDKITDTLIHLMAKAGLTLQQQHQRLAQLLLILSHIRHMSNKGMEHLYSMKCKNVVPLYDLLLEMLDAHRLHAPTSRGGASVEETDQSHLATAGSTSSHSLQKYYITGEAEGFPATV
Description: (§1) Biol. 13, 6501-6508), Sp1 and Sp1-tk-CAT (Courey, A. J. and Tjian, R. (1988), Cell 55, 887-898), CREB and CRE-tk-CAT (Chrivia, J. C. et al., (1993), Nature 365, 855) and GAL4VP16 and 17mer-tk-CAT (Baniahmad, A. et al., (1992), EMBO J. 11, 1015-1023) have been previously described and the above references are incorporated herein by reference in their entirety, including any drawings.
(§2) Lipofectin (GibcoBRL) was selected for transfection of Hela cells.
(§3) HeLa cells were cotransfected with 0.5 μg of cDNAs encoding various steroid receptors indicated and 5 μg of their cognates HREs containing reporters, including PR/PRE2-TATA-CAT, ER/ERE2-TATA-CAT, GR/PRE2-TATA-CAT, TR-/DR4-tk-CAT and RXR/DR1-tk-CAT, along with 3 μg of SRC-1 or empty expression vector. Cells were then treated with their corresponding ligands (PR:R5020, ER:estradiol, GR:dexamethasone, TR:Triac, RXR:9-cis retinoic acid) at a concentration of 2×10^−8M. The CAT activity of the reporter was determined using 14 μg of protein extract.

[3] = biological target: T2, E2F (Homo sapiens, UniProt Q01094); experiment: CAT reporter assay E2F/E2F-tk-CAT in HeLa cells; format: cell-based
T2 construct: expressed in transfected cells; host or cells: HeLa
T2 sequence (Q01094 whole entry): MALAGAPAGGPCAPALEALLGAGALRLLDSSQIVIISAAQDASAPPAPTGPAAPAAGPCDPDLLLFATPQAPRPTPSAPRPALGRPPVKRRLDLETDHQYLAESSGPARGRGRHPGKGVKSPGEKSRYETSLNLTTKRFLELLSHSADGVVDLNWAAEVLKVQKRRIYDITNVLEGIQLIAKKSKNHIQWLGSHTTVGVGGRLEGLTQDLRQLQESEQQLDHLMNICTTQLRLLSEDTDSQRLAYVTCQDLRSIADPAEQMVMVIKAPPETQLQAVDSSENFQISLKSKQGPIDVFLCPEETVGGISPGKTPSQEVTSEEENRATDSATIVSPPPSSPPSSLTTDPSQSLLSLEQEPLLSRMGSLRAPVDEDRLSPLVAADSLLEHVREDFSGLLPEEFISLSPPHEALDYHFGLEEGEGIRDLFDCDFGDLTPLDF
Description: as §2
The CAT activity of the reporter was determined.

[4] = biological target: T3, E47 (Homo sapiens, UniProt P15923); experiment: Effect on the transcriptional activity of E47; format: cell-based
T3 sequence (P15923 1-651 isoform P15923-2): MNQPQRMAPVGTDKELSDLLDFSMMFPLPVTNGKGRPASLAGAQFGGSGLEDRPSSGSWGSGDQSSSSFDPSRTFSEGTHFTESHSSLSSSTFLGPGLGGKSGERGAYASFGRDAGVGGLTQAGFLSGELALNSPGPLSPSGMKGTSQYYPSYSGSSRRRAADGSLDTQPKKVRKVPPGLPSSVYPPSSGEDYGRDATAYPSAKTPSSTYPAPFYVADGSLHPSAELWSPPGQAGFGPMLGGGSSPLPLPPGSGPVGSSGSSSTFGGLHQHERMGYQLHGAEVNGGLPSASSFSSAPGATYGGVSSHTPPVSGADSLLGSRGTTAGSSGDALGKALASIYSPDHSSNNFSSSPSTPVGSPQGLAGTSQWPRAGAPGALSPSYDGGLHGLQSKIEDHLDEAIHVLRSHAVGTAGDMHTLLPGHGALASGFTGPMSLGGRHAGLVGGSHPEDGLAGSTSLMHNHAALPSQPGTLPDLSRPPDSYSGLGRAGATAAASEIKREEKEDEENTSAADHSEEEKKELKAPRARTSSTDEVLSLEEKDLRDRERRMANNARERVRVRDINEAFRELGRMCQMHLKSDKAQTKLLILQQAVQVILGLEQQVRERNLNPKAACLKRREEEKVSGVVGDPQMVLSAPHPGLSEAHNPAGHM

[5] = tested on: GAL4-VP16; conditions: HeLa cells, UASG element
Description: Cells were maintained in Dulbecco's modified Eagle's medium supplemented with 10% (vol/vol) fetal calf serum (Smith, C. L. et al., (1993), Proc. Natl. Acad. Sci. USA 90, 6120-6124). The day before transfection, 10^6 cells were seeded in 100 mm dishes and 4-6 h later switched serum-free medium supplemented with Nutridoma-SR (Boehringer Mannhein). When ER was used for transfections, phenol-red-free medium was used (Smith, C. L. et al., (1993), Proc. Natl. Acad. Sci. USA 90, 6120-6124). HeLa cells were transfected with mammalian expression vectors encoding steroid receptors or other transcription factors along with 5 μg of CAT reporter. Lipofectin (GibcoBRL) was selected for transfection of Hela cells.
Cells were then harvested and proteins prepared as whole-cell extracts by freeze-thaw lysis. The reporter CAT activity in the extract was determined using 100 uCi of [^14C]-chloramphenicol and 4 mM acetyl coenzyme A as substrate and standardized by protein content. Activity of the extract was calculated by determining the percentage of conversion of [^14C]-chloramphenicol to the mono and diacetylated forms (Ausubel, F. M., et al., (1992), Short Protocols In Molecular Biology, New York: Greene Publishing Associates and John Wiley & Sons). […]

[6] = biological target: T4, TR (Homo sapiens, UniProt P10828); experiment: CAT reporter assay TR/DR4-tk-CAT in HeLa cells; format: cell-based; parameters: expressed in transfected cells; conditions: 3 μg SRC-1, Triac 2×10^−8 M
T4 sequence (P10828 1-461): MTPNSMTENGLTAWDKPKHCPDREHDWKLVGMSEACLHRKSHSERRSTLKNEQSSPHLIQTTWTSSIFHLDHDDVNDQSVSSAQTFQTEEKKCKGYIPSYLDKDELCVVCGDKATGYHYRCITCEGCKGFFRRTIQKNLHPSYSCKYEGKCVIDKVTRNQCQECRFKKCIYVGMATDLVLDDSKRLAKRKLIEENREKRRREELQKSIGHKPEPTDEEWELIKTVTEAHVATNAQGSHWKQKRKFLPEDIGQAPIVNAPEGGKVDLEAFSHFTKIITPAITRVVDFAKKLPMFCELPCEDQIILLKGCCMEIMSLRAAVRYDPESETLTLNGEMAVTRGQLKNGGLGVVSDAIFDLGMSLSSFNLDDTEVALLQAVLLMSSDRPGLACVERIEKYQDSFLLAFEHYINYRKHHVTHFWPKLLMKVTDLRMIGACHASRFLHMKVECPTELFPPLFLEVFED
Description: as §1, §2, §3

B1: steroid receptor coactivator-one (SRC-1), full-length (protein)
chain: MSIPRVNPSVNPSISPAHGVARSSTLPPSNSNMVSTRINRQQSSDLHSSSHSNSSNSQGSFGCSPGSQIVANVALNKGQASSQSSKPSLNLNNPPMEGTGISLAQFMSPRRQVTSGLATRPRMPNNSFPPNISTLSSPVGMTSSACNNNNRSYSNIPVTSLQGMNEGPNNSVGFSASSPVLRQMSSQNSPSRLNIQPAKAESKDNKEIASTLNEMIQSDNSSSDGKPLDSGLLHNNDRLSDGDSKYSQTSHKLVQLLTTTAEQQLRHADIDTSCKDVLSCTGTSNSASANSSGGSCPSSHSSLTARHKILHRLLQEGSPSDITTLSVEPDKKDSASTSVSVTGQVQGNSSIKLELDASKKKESKDHQLLRYLLDKDEKDLRSTPNLSLDDVKVKVEKKEQMDPCNTNPTPMTKATPEEIKLEAQSQFTADLDQFDQLLPTLEKAAQLPGLCETDRMDGAVTSVTIKSEILPASLQSATARPTSRLNRLPELELEAIDNQFGQPGTGDQIPWTNNTVTAINQSKSEDQCISSQLDELLCPPTTVEGRNDEKALLEQLVSFLSGKDETELAELDRALGIDKLVQGGGLDVLSERFPPQQATPPLIMEERPNLYSQPYSSPFPTANLPSPFQGMVRQKPSLGTMPVQVTPPRGAFSPGMGMQPRQTLNRPPAAPNQLRLQLQQRLQGQQQLIHQNRQAILNQFAATAPVGINMRSGMQQQITPQPPLNAQMLAQRQRELYSQQHRQRQLIQQQRAMLMRQQSFGNNLPPSSGLPVQTGNPRLPQGAPQQFPYPPNYGTNPGTPPASTSPFSQLAANPEASLANRNSMVSRGMTGNIGGQFGTGINPQMQQNVFQYPGAGMVPQGEANFAPSLSPGSSMVPMPIPPPQSSLLQQTPPASGYQSPDMKAWQQGAIGNNNVFSQAVQNQPTPAQPGVYNNMSITVSMAGGNTNVQNMNPMMAQMQMSSLQMPGMNTVCPEQINDPALRHTGLYCNQLSSTDLLKTEADGTQQVQQVQVFADVQCTVNLVGGDPYLNQPGPLGTQKPTSGPQTPQAQQKSLLQQLLTE
fold induction of PRE2-TATA-CAT reporter activity over the hormone-induced receptor activity (HeLa cells, R5020) [1]: 14 fold
reversal of hER squelching of hPR-mediated CAT reporter activity (HeLa cells) [1]: 16 fold
stimulation of PR transactivation at the highest concentration of SRC-1 (2 µg), CAT reporter [1]: 5 fold
effect on ER transcriptional activity [2]: enhance
effect on E2F transcriptional activity [3]: did not alter
effect on E47 transcriptional activity [4]: did not alter
effect on GAL4-VP16 transcriptional activity [5]: enhanced
effect on TR transcriptional activity [6]: enhance
